According to US7935795 (EVEC, dated 2011):

Target: T1, recombinant human granulocyte-macrophage colony stimulating factor (hGM-CSF) (human, UniProt P04141 18-144)
T1 construct: also called recombinant GM-CSF; recombinant hGM-CSF
Test: BIAcore, antibody immobilised on sensor chip, recombinant hGM-CSF as analyte
Experimental: Affinity analysis was conducted on the anti-hGM-CSF antibody applying BIAcore® system (FIG. 4). In the method, the antibody (purified antibody) was immobilized to a sensor chip, and then an antigen (recombinant) was added to the surface of the immobilized antibody, so that the interaction between antibody and an antigen was measured. A purified antibody was applied to the antibody, and a recombinant hGM-CSF was applied to the antigen. A mouse anti-GM-CSF monoclonal antibody (commercially available) (R&D) was applied to a positive control, and a purified anti-human cytomegalovirus monoclonal antibody was applied to a negative control. After the analysis, it turned out that antigen-antibody interaction was not detected in the negative control. In the positive control, dissociation constant of 6.1×10^-9 M is shown as the affinity. The affinity of the anti-GM-CSF antibody obtained was 2.1×10^-10 M (FIG. 5).

T1 sequence (P04141 18-144 limits assumed): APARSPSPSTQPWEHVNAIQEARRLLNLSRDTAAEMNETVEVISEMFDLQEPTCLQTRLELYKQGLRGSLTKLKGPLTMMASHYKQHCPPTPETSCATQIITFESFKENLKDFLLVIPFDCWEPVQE

B1: anti-hGM-CSF human monoclonal antibody J158 4C (antibody, human IgG1, kappa, V domains shown)
VH: LVQLVQSEAEVKKPGASVRISCRTSGYIFPTFALHWVRQAPGQSLEWVGSINTASGKTKFSTKFQDRLTLSSNTSATTVYMDLSGLTLDDTALYYCARDRFQNIMATILDVWGQGTLVTVSS
VL: DIVLTQSPGTLSLSPGERVTVSCRASHRVSSNYLAWYQQRPGQSPRLLIFGASNRATGVPDRFSGSGSGTDFALTISRLEPDDFAVYYCQQYASSPVTFGGGTKLEIKR
notes: also called anti-hGM-CSF antibody; anti-GM-CSF antibody
Kd: 0.21 nM
